Data from PMC4682967.

How the values were obtained:
[1] = test system: scFv-Fc_(CH3A) of A107 and A108 (K370E/K409W); test: non-reducing SDS-PAGE of coexpressed chains; scFv-Fc_(CH3A) and Fc_(CH3B) cotransfected at equivalent molar ratio in HEK293F, Protein A purified from supernatant after 6 days; heterodimer and homodimers told apart by mass, band intensities by ImageJ; settings: other: non-reducing SDS-PAGE of coexpressed chains
[2] = test system: scFv-Fc_(CH3A) of A241 (E357N/S364W/K370E); test: as above; settings: other: non-reducing SDS-PAGE of coexpressed chains
[3] = test system: scFv-Fc_(CH3A) of A107_(w/o W-VT) (K370E); test: as above; settings: other: non-reducing SDS-PAGE of coexpressed chains
[4] = test system: scFv-Fc_(CH3A) of A216 (E357G/S364W/K370E); test: as above; settings: other: non-reducing SDS-PAGE of coexpressed chains
[5] = test system: scFv-Fc_(CH3A) of A109 (K370M/K409W); test: as above; settings: other: non-reducing SDS-PAGE of coexpressed chains
[6] = test system: scFv-Fc_(CH3A) of A109_(w/o W-VT) (K370M); test: as above; settings: other: non-reducing SDS-PAGE of coexpressed chains
[7] = test system: scFv-Fc_(CH3A) of A146 (K370D/K409W); test: as above; settings: other: non-reducing SDS-PAGE of coexpressed chains
[8] = test system: scFv-Fc_(CH3A) of A146_(w/o W-VT) (K370D); test: as above; settings: other: non-reducing SDS-PAGE of coexpressed chains
[9] = test system: scFv-Fc_(CH3A) of A205 (E357D/S364W/K370E); test: as above; settings: other: non-reducing SDS-PAGE of coexpressed chains
[10] = test system: scFv-Fc_(CH3A) of A210 (E357A/S364Y/K370E); test: as above; settings: other: non-reducing SDS-PAGE of coexpressed chains
[11] = test system: scFv-Fc_(CH3A) of B121 (D399E/K409W); test: as above; settings: other: non-reducing SDS-PAGE of coexpressed chains
[12] = test system: scFv-Fc_(CH3A) of B135 and B168 (D399L/K409W); test: as above; settings: other: non-reducing SDS-PAGE of coexpressed chains
[13] = test system: scFv-Fc_(CH3A) of B168_(w/o W-VT) (D399L); test: as above; settings: other: non-reducing SDS-PAGE of coexpressed chains
[14] = test system: scFv-Fc_(CH3A) of B240 (K392S/K409R/D399L); test: as above; settings: other: non-reducing SDS-PAGE of coexpressed chains
[15] = test system: scFv-Fc_(CH3A) of B212 (K392I/D399L); test: as above; settings: other: non-reducing SDS-PAGE of coexpressed chains
[16] = test system: scFv-Fc_(CH3A) of B215 (K392R/K409R/D399L); test: as above; settings: other: non-reducing SDS-PAGE of coexpressed chains
[17] = test system: scFv-Fc_(CH3A) of B235 (K392C/D399L); test: as above; settings: other: non-reducing SDS-PAGE of coexpressed chains
[18] = test system: scFv-Fc_(CH3A) of B239 (K392L/D399L); test: as above; settings: other: non-reducing SDS-PAGE of coexpressed chains
[19] = test system: scFv-Fc_(CH3A) of B256 (K392N/D399L); test: as above; settings: other: non-reducing SDS-PAGE of coexpressed chains
[20] = test system: scFv-Fc_(CH3A) of W-VT (K409W); test: as above; settings: other: non-reducing SDS-PAGE of coexpressed chains
[21] = target: human neonatal Fc receptor (FcRn) (human) (UniProt P55899); test: SPR; human FcRn coated on the chip at approximately 1,000 response units; serially diluted Fc proteins applied; pH 6.0; mean ± SD of two independent experiments, at least 5 data sets each

Fc_(CH3B) of A107 (E357N/D399V/F405T)
heterodimer yield (%) [1]: 93.4%

Fc_(CH3B) of A107_(w/o W-VT), A216 and A241 (E357N)
heterodimer yield (%) [2]: 81%
heterodimer yield (%) [3]: 78.2%
heterodimer yield (%) [4]: 80.3%

Fc_(CH3B) of A108 (E357I/S364T/D399V/F405T)
heterodimer yield (%) [1]: 70.5%

Fc_(CH3B) of A109 (E357M/S364W/D399V/F405T)
heterodimer yield (%) [5]: 90.5%

Fc_(CH3B) of A109_(w/o W-VT) (E357M/S364W)
heterodimer yield (%) [6]: 61.6%

Fc_(CH3B) of A146 (E357M/D399V/F405T)
heterodimer yield (%) [7]: 74.5%

Fc_(CH3B) of A146_(w/o W-VT) (E357M)
heterodimer yield (%) [8]: 71%

Fc_(CH3B) of A205 (E357N/K370R)
heterodimer yield (%) [9]: 88.8%

Fc_(CH3B) of A210 (E357N/K370H)
heterodimer yield (%) [10]: 80.8%

Fc_(CH3B) of B121 (K392E/D399V/F405T)
heterodimer yield (%) [11]: 73.3%

Fc_(CH3B) of B135 (K392S/K409L/D399V/F405T)
heterodimer yield (%) [12]: 67.8%

Fc_(CH3B) of B168 (K392G/K409M/D399V/F405T)
heterodimer yield (%) [12]: 77.7%

Fc_(CH3B) of B168_(w/o W-VT) (K392G/K409M)
heterodimer yield (%) [13]: 60.9%

Fc_(CH3B) of B212 and B240 (D399G/K392G/K409M)
heterodimer yield (%) [14]: 83.3%
heterodimer yield (%) [15]: 65.3%

Fc_(CH3B) of B215 (D399W/K392G/K409M)
heterodimer yield (%) [16]: 78.1%

Fc_(CH3B) of B235 (D399C/K392G/K409M)
heterodimer yield (%) [17]: 89.4%

Fc_(CH3B) of B239 (D399S/K392G/K409M)
heterodimer yield (%) [18]: 76.3%

Fc_(CH3B) of B256 (D399V/K392G/K409M)
heterodimer yield (%) [19]: 79.4%

Fc_(CH3B) of W-VT (D399V/F405T)
heterodimer yield (%) [20]: 60.8%

wild-type human IgG1 Fc homodimer (Fc-WT) (domain or fragment)
Kd [21]: 35.6 nM
koff [21]: 5.83e-05 s⁻¹
kon [21]: 1640 M⁻¹ s⁻¹
